Tested on: Escherichia coli TOP10
Test: shrunken log2 fold change of peptide-encoding DNA abundance (4.5 h post-induction vs induction); higher = less antimicrobial activity (less host growth inhibition)
Details: time post-induction: 4.5 h; library: site-saturation at positions 5, 18, 19, 20
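Also: peptides expressed intracellularly from a pBAD plasmid library in pooled LB shake-flask culture, induced with 0.3% L-arabinose, DNA abundance read by NGS, three biological replicates, DESeq2 with apeglm shrinkage.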

For RRIRRRPPRLPRPRPRPWQEPRP, the “shrunken log2 fold change” value was 0.00489.

For RRIRRRPPRLPRPRPRPWQFPRP, the “shrunken log2 fold change” value was -0.0199.

With RRIRRRPPRLPRPRPRPWQSPRP the “shrunken log2 fold change” value was -0.0153.

With RRIRRRPPRLPRPRPRPWRGPRP the “shrunken log2 fold change” value was 0.215.

RRIRRRPPRLPRPRPRPWTWPRP was tested, and the “shrunken log2 fold change” value was -0.008.

For RRIRRRPPRLPRPRPRPWYNPRP, the “shrunken log2 fold change” value was -0.468.

For RRIRRRPPRLPRPRPRPWYTPRP, the “shrunken log2 fold change” value was -0.637.

In the case of RRIRRRPPRLPRPRPRPYARPRP, the “shrunken log2 fold change” value is reported as 0.0203.

For RRIRRRPPRLPRPRPRPYECPRP, the “shrunken log2 fold change” value was -0.0148.

In the case of RRIRRRPPRLPRPRPRPYEQPRP, the “shrunken log2 fold change” value is reported as -0.214.

RRIRRRPPRLPRPRPRPYFRPRP was tested, and the “shrunken log2 fold change” value was -0.203.

With RRIRRRPPRLPRPRPRPYHTPRP the “shrunken log2 fold change” value was -1.28.

In the case of RRIRRRPPRLPRPRPRPYIFPRP, the “shrunken log2 fold change” value is reported as -0.639.

For RRIRRRPPRLPRPRPRPYLAPRP, the “shrunken log2 fold change” value was -0.185.

With RRIRRRPPRLPRPRPRPYLCPRP the “shrunken log2 fold change” value was -0.404.

RRIRRRPPRLPRPRPRPYMIPRP was tested, and the “shrunken log2 fold change” value was -0.263.

With RRIRRRPPRLPRPRPRPYMPPRP the “shrunken log2 fold change” value was -0.186.

With RRIRRRPPRLPRPRPRPYNKPRP the “shrunken log2 fold change” value was -0.664.

For RRIRRRPPRLPRPRPRPYPDPRP, the “shrunken log2 fold change” value was -0.0558.

For RRIRRRPPRLPRPRPRPYQIPRP, the “shrunken log2 fold change” value was 0.022.

For RRIRRRPPRLPRPRPRPYQQPRP, the “shrunken log2 fold change” value was -0.000903.

RRIRRRPPRLPRPRPRPYSDPRP was tested, and the “shrunken log2 fold change” value was 0.186.

For RRIRRRPPRLPRPRPRPYSPPRP, the “shrunken log2 fold change” value was 0.00204.

For RRIRRRPPRLPRPRPRPYTEPRP, the “shrunken log2 fold change” value was -0.452.

With RRIRRRPPRLPRPRPRPYWRPRP the “shrunken log2 fold change” value was 0.0363.

RRIRRRPPRLPRPRPRPYYPPRP was tested, and the “shrunken log2 fold change” value was -0.468.

In the case of RRIRSRPPRLPRPRPRPAAEPRP, the “shrunken log2 fold change” value is reported as 0.466.

For RRIRSRPPRLPRPRPRPAAYPRP, the “shrunken log2 fold change” value was 0.269.

For RRIRSRPPRLPRPRPRPADVPRP, the “shrunken log2 fold change” value was 0.438.

With RRIRSRPPRLPRPRPRPAEDPRP the “shrunken log2 fold change” value was -0.0146.

With RRIRSRPPRLPRPRPRPAEMPRP the “shrunken log2 fold change” value was 0.125.

RRIRSRPPRLPRPRPRPAFFPRP was tested, and the “shrunken log2 fold change” value was 0.328.

In the case of RRIRSRPPRLPRPRPRPAFKPRP, the “shrunken log2 fold change” value is reported as -0.333.

In the case of RRIRSRPPRLPRPRPRPAFLPRP, the “shrunken log2 fold change” value is reported as -0.0125.

In the case of RRIRSRPPRLPRPRPRPAIAPRP, the “shrunken log2 fold change” value is reported as -0.00626.

For RRIRSRPPRLPRPRPRPAKSPRP, the “shrunken log2 fold change” value was 0.0744.

RRIRSRPPRLPRPRPRPALCPRP was tested, and the “shrunken log2 fold change” value was 0.292.

For RRIRSRPPRLPRPRPRPALIPRP, the “shrunken log2 fold change” value was 0.0414.

In the case of RRIRSRPPRLPRPRPRPAMMPRP, the “shrunken log2 fold change” value is reported as -0.0721.

RRIRSRPPRLPRPRPRPAPNPRP was tested, and the “shrunken log2 fold change” value was 0.329.

For RRIRSRPPRLPRPRPRPAQNPRP, the “shrunken log2 fold change” value was 0.241.

With RRIRSRPPRLPRPRPRPAQWPRP the “shrunken log2 fold change” value was 0.595.

RRIRSRPPRLPRPRPRPAREPRP was tested, and the “shrunken log2 fold change” value was 0.0982.

With RRIRSRPPRLPRPRPRPASGPRP the “shrunken log2 fold change” value was 0.268.

In the case of RRIRSRPPRLPRPRPRPASLPRP, the “shrunken log2 fold change” value is reported as -0.0507.

In the case of RRIRSRPPRLPRPRPRPASRPRP, the “shrunken log2 fold change” value is reported as 0.189.

In the case of RRIRSRPPRLPRPRPRPAVGPRP, the “shrunken log2 fold change” value is reported as 0.391.

RRIRSRPPRLPRPRPRPAVWPRP was tested, and the “shrunken log2 fold change” value was 0.765.

For RRIRSRPPRLPRPRPRPAWFPRP, the “shrunken log2 fold change” value was 0.171.

For RRIRSRPPRLPRPRPRPAWMPRP, the “shrunken log2 fold change” value was -0.263.

With RRIRSRPPRLPRPRPRPAYFPRP the “shrunken log2 fold change” value was -0.297.

RRIRSRPPRLPRPRPRPCADPRP was tested, and the “shrunken log2 fold change” value was 0.0939.

In the case of RRIRSRPPRLPRPRPRPCATPRP, the “shrunken log2 fold change” value is reported as 0.162.

RRIRSRPPRLPRPRPRPCCGPRP was tested, and the “shrunken log2 fold change” value was 0.983.

For RRIRSRPPRLPRPRPRPCCVPRP, the “shrunken log2 fold change” value was 0.0729.

In the case of RRIRSRPPRLPRPRPRPCCWPRP, the “shrunken log2 fold change” value is reported as -0.0914.

With RRIRSRPPRLPRPRPRPCDDPRP the “shrunken log2 fold change” value was 0.161.

RRIRSRPPRLPRPRPRPCDMPRP was tested, and the “shrunken log2 fold change” value was -0.184.

With RRIRSRPPRLPRPRPRPCFQPRP the “shrunken log2 fold change” value was -0.0966.

RRIRSRPPRLPRPRPRPCHLPRP was tested, and the “shrunken log2 fold change” value was -0.0433.

With RRIRSRPPRLPRPRPRPCHPPRP the “shrunken log2 fold change” value was 0.0162.

RRIRSRPPRLPRPRPRPCIDPRP was tested, and the “shrunken log2 fold change” value was -0.607.

For RRIRSRPPRLPRPRPRPCISPRP, the “shrunken log2 fold change” value was -0.0391.

For RRIRSRPPRLPRPRPRPCKDPRP, the “shrunken log2 fold change” value was -0.153.

For RRIRSRPPRLPRPRPRPCKFPRP, the “shrunken log2 fold change” value was -0.301.

RRIRSRPPRLPRPRPRPCKTPRP was tested, and the “shrunken log2 fold change” value was 0.0503.

In the case of RRIRSRPPRLPRPRPRPCKWPRP, the “shrunken log2 fold change” value is reported as -0.053.

With RRIRSRPPRLPRPRPRPCLDPRP the “shrunken log2 fold change” value was -0.224.

RRIRSRPPRLPRPRPRPCMDPRP was tested, and the “shrunken log2 fold change” value was -0.0717.

For RRIRSRPPRLPRPRPRPCNGPRP, the “shrunken log2 fold change” value was -0.0821.

With RRIRSRPPRLPRPRPRPCPHPRP the “shrunken log2 fold change” value was -0.283.

With RRIRSRPPRLPRPRPRPCRAPRP the “shrunken log2 fold change” value was -0.0808.

For RRIRSRPPRLPRPRPRPCVCPRP, the “shrunken log2 fold change” value was 0.0568.

With RRIRSRPPRLPRPRPRPCWPPRP the “shrunken log2 fold change” value was 0.42.

In the case of RRIRSRPPRLPRPRPRPCYFPRP, the “shrunken log2 fold change” value is reported as -0.387.

With RRIRSRPPRLPRPRPRPCYKPRP the “shrunken log2 fold change” value was -0.281.

For RRIRSRPPRLPRPRPRPCYYPRP, the “shrunken log2 fold change” value was -0.571.

RRIRSRPPRLPRPRPRPDADPRP was tested, and the “shrunken log2 fold change” value was -0.0578.

RRIRSRPPRLPRPRPRPDCMPRP was tested, and the “shrunken log2 fold change” value was -0.165.

With RRIRSRPPRLPRPRPRPDCRPRP the “shrunken log2 fold change” value was 0.0345.

With RRIRSRPPRLPRPRPRPDCWPRP the “shrunken log2 fold change” value was 0.362.

For RRIRSRPPRLPRPRPRPDESPRP, the “shrunken log2 fold change” value was -0.264.

With RRIRSRPPRLPRPRPRPDFAPRP the “shrunken log2 fold change” value was -0.021.

With RRIRSRPPRLPRPRPRPDGCPRP the “shrunken log2 fold change” value was 0.0344.

For RRIRSRPPRLPRPRPRPDGFPRP, the “shrunken log2 fold change” value was -0.0636.

For RRIRSRPPRLPRPRPRPDGMPRP, the “shrunken log2 fold change” value was -0.113.

In the case of RRIRSRPPRLPRPRPRPDHMPRP, the “shrunken log2 fold change” value is reported as -0.00607.

In the case of RRIRSRPPRLPRPRPRPDHPPRP, the “shrunken log2 fold change” value is reported as -0.0828.

In the case of RRIRSRPPRLPRPRPRPDHTPRP, the “shrunken log2 fold change” value is reported as -0.407.

With RRIRSRPPRLPRPRPRPDKQPRP the “shrunken log2 fold change” value was -0.0566.

With RRIRSRPPRLPRPRPRPDLEPRP the “shrunken log2 fold change” value was -0.0903.

With RRIRSRPPRLPRPRPRPDMQPRP the “shrunken log2 fold change” value was -0.00211.

RRIRSRPPRLPRPRPRPDNEPRP was tested, and the “shrunken log2 fold change” value was -0.0519.

With RRIRSRPPRLPRPRPRPDRWPRP the “shrunken log2 fold change” value was 0.0855.

RRIRSRPPRLPRPRPRPDSDPRP was tested, and the “shrunken log2 fold change” value was 0.051.

With RRIRSRPPRLPRPRPRPDTKPRP the “shrunken log2 fold change” value was -0.248.

With RRIRSRPPRLPRPRPRPDTLPRP the “shrunken log2 fold change” value was -0.126.

RRIRSRPPRLPRPRPRPDTYPRP was tested, and the “shrunken log2 fold change” value was -0.713.

With RRIRSRPPRLPRPRPRPDVMPRP the “shrunken log2 fold change” value was -0.0117.

For RRIRSRPPRLPRPRPRPDVSPRP, the “shrunken log2 fold change” value was -0.0357.

With RRIRSRPPRLPRPRPRPDWGPRP the “shrunken log2 fold change” value was -0.128.

RRIRSRPPRLPRPRPRPDWWPRP was tested, and the “shrunken log2 fold change” value was -0.0873.

For RRIRSRPPRLPRPRPRPDYKPRP, the “shrunken log2 fold change” value was -0.722.

RRIRSRPPRLPRPRPRPDYTPRP was tested, and the “shrunken log2 fold change” value was -0.342.

For RRIRSRPPRLPRPRPRPEAMPRP, the “shrunken log2 fold change” value was 1.09.

In the case of RRIRSRPPRLPRPRPRPEARPRP, the “shrunken log2 fold change” value is reported as 0.292.

For RRIRSRPPRLPRPRPRPEASPRP, the “shrunken log2 fold change” value was 0.715.

RRIRSRPPRLPRPRPRPECCPRP was tested, and the “shrunken log2 fold change” value was 0.21.

RRIRSRPPRLPRPRPRPECWPRP was tested, and the “shrunken log2 fold change” value was 1.03.
